T1: La protein (Lupus autoantigen), native, in lysates of fusing human osteoclasts (human, UniProt P05455 1-408, limits assumed)
T1 construct: Endogenous La from monocyte-derived human osteoclasts 3 days post-RANKL; also called native La; SSB
T1 sequence: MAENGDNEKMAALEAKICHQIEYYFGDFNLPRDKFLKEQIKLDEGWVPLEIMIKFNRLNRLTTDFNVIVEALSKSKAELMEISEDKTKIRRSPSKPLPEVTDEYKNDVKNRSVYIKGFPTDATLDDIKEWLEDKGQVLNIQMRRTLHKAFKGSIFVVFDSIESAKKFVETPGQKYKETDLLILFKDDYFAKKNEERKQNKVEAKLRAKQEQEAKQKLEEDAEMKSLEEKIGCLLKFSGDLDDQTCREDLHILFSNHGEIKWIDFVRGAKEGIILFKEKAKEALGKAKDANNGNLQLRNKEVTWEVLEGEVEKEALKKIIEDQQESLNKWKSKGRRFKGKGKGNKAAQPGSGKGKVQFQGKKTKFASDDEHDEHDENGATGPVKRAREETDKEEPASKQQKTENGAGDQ


How the values were obtained:
[1] = target: T1, La protein (Lupus autoantigen), native, …; assay: co-immunoprecipitation with α-La on magnetic beads from DTSSP-crosslinked osteoclast lysates, immunoblot
[2] = tested on: human monocyte-derived osteoclasts; assay: Osteoclast fusion assay (number of fusion events, fluorescence microscopy); type: cell-based; settings: overexpression from expression plasmid vs empty plasmid, human osteoclasts
Protocol: Osteoclasts: Elutriated monocytes from healthy donors were obtained. Cells were plated at 2.9×10^5 per cm^2 in 35 mm dishes with polymer coverslip bottoms (Ibidi #81156) for imaging or 35 mm or 10 cm dishes for biochemical experiments in complete media [α-MEM supplemented with 10% Fetal Bovine Serum (FBS) and penicillin-streptomycin-L-glutamine (Gibco Invitrogene #12571063; #26140079 and #10378016, respectively)]. Monocytes were differentiated to M2 macrophages in the presence of 100 ng/ml M-CSF for 6 days and then differentiated with 100 ng/ml M-CSF and 100 ng/ml RANKL for 3 days unless indicated otherwise. RAW 264.7 cells (ATCC, Manassas, VA, #TIB-71) were maintained in DMEM supplemented with 10% FBS to a maximum of 8 passages. RAW 264.7 cells were differentiated to osteoclasts in the presence of 100 ng/ml murine RANKL for 5 days. To separate unfused mononucleated and fused, multinucleated RAW 264.7 cells into separate fractions, advantage was taken of the much stronger adherence of multinucleated cells to culture dish plastic. After washing in PBS, mixed RAW cultures (following RANKL differentiation) were left in Ca^2+ and Mg^2+ free PBS for 10 minutes at room temperature. Culture dishes were then tapped on the lab bench and a large portion of unfused, mononucleated RAW cells were released, and these released cells were collected via centrifugation. This process was repeated 2-4 times until dishes were left with a population of primarily fused, multinucleated syncytia. Mononucleated and multinucleated cell fractions were then processed for biochemical or imaging experiments as described below.
Constructs & Recombinant proteins & Transfection: Recombinant La 1-408, 1-375, 1-375 Q20A_Y24A_D33I, 1-187 and 188-375 were amplified with primers designed with overlapping sequences and inserted between NdeI/HindIII in the V78 pET28A E. coli expression vector, adding to each a N-terminal 6×his affinity tag. La 1-408 was expressed as a recombinant protein in E. coli and purified using IMAC columns by SD Biosciences (San Diego, CA). The remaining constructs were transformed into BL2 (DE3) chemically competent E. coli (Thermo Fisher Scientific) and protein expression was induced with IPTG. Cells were lysed with Bugbuster (Sigma), and 6×his-La proteins were affinity purified using HisPur Cobalt Spin columns (Thermo Fisher Scientific), each according to the manufacturer's instructions. Endotoxin contaminates were depleted from affinity purified 6×his-La proteins using Pierce high-capacity endotoxin removal columns (Thermo Fisher Scientific), according to the manufacturer's instructions. Proteins were then sterile filtered, aliquoted and kept at −80 C.
Plasmids were introduced into primary osteoclasts at day 2 of RANKL stimulation via jetPRIME (Polyplus Transfection). FLAG-La 1-408, FLAG-La 1-375 and FLAG-La 1-375 Q20A_Y24A_D33I plasmids were a gift of the Maraia Lab (NICHD). Briefly, SSB (UniProt P05455) was inserted between HindIII and BamHI the pFLAG-CMV2 vector (Sigma). “Uncleavable” La was produced by taking the FLAG-La 1-408 plasmid and making two point mutations at amino acids D371A and D374A, abrogating the caspase cleavage sites at the C-terminal region of the protein (Emory Integrated Genomics Core). siRNA were introduced into primary osteoclasts after 1 day of RANKL stimulation via Lipofectamine RNAiMAX (Thermo Fisher Scientific). Non-targeted (Cat #4390843) and SSB-targeted (Cat #4392420_ID:s13469) siRNA were introduced at a concentration of 5 ng/ml (Silencer Select, Ambion).
Fusion Assays: Osteoclast fusion in the culture systems was evaluated by fluorescence microscopy (Verma et al., J Biol Chem 293, 254-270, doi:10.1074/jbc.M117.809681 (2018)). Briefly, cells were fixed with 4% paraformaldehyde at timepoints of interest, permeabilized with 0.1% TRITON™ X-100 and blocked with 5% FBS. Cells were then stained with phallodin-ALEXAFLURO®488 and Hoechst to label cells' actin cytoskeleton and nuclei, respectively. […]

[3] = tested on: human, monocyte-derived osteoclasts; assay: Bone resorption assay (fluoresceinamine-labeled chondroitin sulfate on calcium phosphate-coated plates); type: cell-based; settings: overexpression, normalized to empty plasmid
Protocol: There is a relationship between osteoclast fusion and bone resorption (Makris and Saffar, Arch Oral Biol 27, 965-969, doi:10.1016/0003-9969(82)90104-2 (1982); Piper et al., Anat Embryol (Berl) 186, 291-299, doi:10.1007/BF00185977 (1992); Moller et al., Int J Mol Sci 21, doi:10.3390/ijms21176368 (2020)). It was hypothesized that by regulating osteoclast size, La also regulates bone resorption. This hypothesis was evaluated by differentiating osteoclasts on fluoresceinated calcium phosphate, a biomimetic of bone, and assessed osteoclast-dependent bone resorption by the release of fluorescein into the media (FIG. 5A). […] Overexpression of La 1-375 promoted bone resorption, while the uncleavable La mutant, D371,374A, had no effect (FIG. 5B).
Bone Resorption: Bone resorption was evaluated using bone resorption assay kits from Cosmo Bio USA according to the manufacturer's instructions. Briefly, fluoresceinamine-labeled chondroitin sulfate was used to label 24-well, calcium phosphate-coated plates. Human, monocyte-derived osteoclasts were differentiated as described above, using alpha MEM without phenol red. Media were collected at 4-5 days post RANKL addition, and fluorescence intensity within the media was evaluated as recommended by the manufacture.

Row | Molecule | binding result [1] | osteoclast fusion (fusion events in syncytia with 3+ nuclei) [2] | bone resorption [3]
1 | Annexin A1 (Anx A1), native, in fusing human osteoclasts (other, UniProt P04083 2-346, looked up) AMVSEFLKQAWFIENEEQEYVQTVKSSKGGPGSAVSPYPTFNPSSDVAALHKAIMVKGVDEATIIDILTKRNNAQRQQIKAAYLQETGKPLDETLKKALTGHLEEVVLALLKTPAQFDADELRAAMKGLGTDEDTLIEILASRTNKEIRDINRVYREELKRDLAKDITSDTSGDFRNALLSLAKGDRSEDFGVNEDLADSDARALYEAGERRKGTDVNVFNTILTTRSYPQLRRVFQKYTKYSKHDMNKVLDLELKGDIEKCLTAIVKCATSKPAFFAEKLHQAMKGVGTRHKALIRIMVSRSEIDMNDIKAFYQKMYGISLCQAILDETKGDYEKILVALCGGN | no binding | – | –
2 | Annexin A4 (Anx A4), native, in fusing human osteoclasts (other, UniProt P09525 2-319, looked up) ATKGGTVKAASGFNAMEDAQTLRKAMKGLGTDEDAIISVLAYRNTAQRQEIRTAYKSTIGRDLIDDLKSELSGNFEQVIVGMMTPTVLYDVQELRRAMKGAGTDEGCLIEILASRTPEEIRRISQTYQQQYGRSLEDDIRSDTSFMFQRVLVSLSAGGRDEGNYLDDALVRQDAQDLYEAGEKKWGTDEVKFLTVLCSRNRNHLLHVFDEYKRISQKDIEQSIKSETSGSFEDALLAIVKCMRNKSAYFAEKLYKSMKGLGTDDNTLIRVMVSRAEIDMLDIRAHFKRLYGKSLYSFIKGDTSGDYRKVLLVLCGGDD | no binding | – | –
3 | D371A,D374A La: uncleavable mutant of FL La, caspase cleavage sites disrupted, overexpressed from plasmid (protein, UniProt P05455 1-408, looked up, variant D371A D374A, full-length, uncleavable mutant of FL La, caspase cleavage sites disrupted, overexpressed from plasmid) MAENGDNEKMAALEAKICHQIEYYFGDFNLPRDKFLKEQIKLDEGWVPLEIMIKFNRLNRLTTDFNVIVEALSKSKAELMEISEDKTKIRRSPSKPLPEVTDEYKNDVKNRSVYIKGFPTDATLDDIKEWLEDKGQVLNIQMRRTLHKAFKGSIFVVFDSIESAKKFVETPGQKYKETDLLILFKDDYFAKKNEERKQNKVEAKLRAKQEQEAKQKLEEDAEMKSLEEKIGCLLKFSGDLDDQTCREDLHILFSNHGEIKWIDFVRGAKEGIILFKEKAKEALGKAKDANNGNLQLRNKEVTWEVLEGEVEKEALKKIIEDQQESLNKWKSKGRRFKGKGKGNKAAQPGSGKGKVQFQGKKTKFASDDEHAEHAENGATGPVKRAREETDKEEPASKQQKTENGAGDQ | – | no effect | no effect
